Our source for the Kd, % tracer displacement and Tmapp of DnaJB4 with 100 µM peptide values is publication doi:10.1101/2021.10.18.464838.

Assay [1] deals with Hsp72 tracer FITC-Ahx-…. The experiment in a line: fluorescence polarisation. (In general: Polarisation of emitted light reports the rotation of a fluorescent probe.)
Assay [2] deals with DnaJB4 (recombinant, human, full length, wild type) (human) (UniProt Q9UDY4). Kind of assay: fluorescence polarisation.
Assay [3] shares this target. The experiment in a line: differential scanning fluorimetry. Background: DSF heats the sample and reads unfolding from a dye or from intrinsic fluorescence.

As for “CHIP (recombinant human) (from UniProt Q9UNE7 1-303) (natural protein)”, the Kd (in general, the equilibrium constant for the complex coming apart) in assay [1] turned out to be 1000 nM. Still for that read-out and setting: in the case of “DnaJB4 QPD mutant (from UniProt Q9UDY4 1-337) (natural protein)” it was 2030 nM. Take “Hsc70 C-terminal 10-mer peptide, unlabeled, N-acetylated”: in assay [2], the % tracer displacement was 67.6%. In addition, the Tmapp of DnaJB4 with 100 µM peptide in assay [3] was 59 °C.
